For data set [1], the system named is chick E7 retinal ganglion neurons (RGN) expressing human NgR. The data set can be described thus: Growth cone collapse in E7 retinal ganglion neurons expressing FLAG-NgR (HSV infection). In kind it is cell-based. Particulars: E7 RGN infected with HSV FLAG-NgR. From the text:
To assess whether NgR is capable of mediating OMgp-induced inhibitory activity on neurite outgrowth, we next took a gain-of-function approach to examine whether expression of NgR was able to confer OMgp-responsiveness to otherwise insensitive neurons. It has been shown previously that chick E7 retinal ganglion neurons (RGN) are insensitive to Nogo-66, but that introduction of exogenous NgR in these neurons rendered their growth cones to be responsive to Nogo-66^9. Using the same strategy, we made a recombinant herpes simplex virus (HSV) that drives expression of a FLAG-tagged full-length human NgR (FLAG-NgR) in infected neurons. Upon infection, 80% of the E7 RGNs expressed the FLAG-NgR protein as assessed by immunocytochemistry with an anti-FLAG antibody. […] Furthermore, the growth cones of NgR-expressing axons also become collapsible by OMgp.
Growth Cone Collapse and Neurite Outgrowth Assays. […] Infection of HSV-LacZ was detected by a standard b-galatosidase staining protocol^20. FLAG-NgR expression was detected by incubating paraformaldehyde-fixed cultures with M2 anti-FLAG antibody (Sigma). Bound antibody was detected by incubation with AP-conjugated […] IgG second antibody and reaction with NBT and BCIP (Vector labs). Growth cone collapse was quantified only in those positively stained for b-galatosidase or immunoreactive for the FLAG epitope.

Data set [2] concerns growth cones of E13 chick DRG neurons. Description: Growth cone collapse assay with E13 chick DRG explants. In kind it is cell-based. As to conditions: E13 chick DRG. From the text: OMgp is a Physiological Nogo Receptor Ligand and Inhibitor of Neurite Outgrowth. To examine whether any GPI-linked proteins in CNS myelin may act as inhibitors of neurite outgrowth, we treated purified bovine white matter myelin with phosphatidylinositol-specific phospholipase C (PI-PLC) and examined the released proteins for their ability to alter growth cone morphology in a growth cone collapse assay using embryonic day 13 chick dorsal root ganglia (E13 DRG)^6,9,10. […] Since the size of this band was similar to that of a previously identified CNS myelin protein OMgp^11,12, we used antibodies specific for OMgp to detect enrichment of cleaved OMgp in the PI-PLC supernatants by Western blot. […] Next, we examined whether purified recombinant OMgp protein was able to act as an inhibitor of neurite outgrowth in two well-established in vitro assays, the growth cone collapse^6,9,13 and the neurite outgrowth assays^3-7,9.
Growth Cone Collapse and Neurite Outgrowth Assays. Chick E13 DRG and E7 retina were isolated and cultured as described previously^9,10. DRG explants cultured overnight were used for growth cone collapse assays. To assess the effects of PI-PLC treatment, cultures were pre-incubated with 2 U/ml PI-PLC for 30 min prior to treatment with individual test proteins for an additional 30 min. To express NgR in E7 retinal ganglion neurons, we infected the explants with recombinant HSV for 24 hr. After incubation with each test protein for 30 min, retinal explants were fixed in 4% paraformaldehyde and 15% sucrose. Infection of HSV-LacZ was detected by a standard b-galatosidase staining protocol^20. FLAG-NgR expression was detected by incubating paraformaldehyde-fixed cultures with M2 anti-FLAG antibody (Sigma). Bound antibody was detected by incubation with AP-conjugated […] IgG second antibody and reaction with NBT and BCIP (Vector labs). Growth cone collapse was quantified only in those positively stained for b-galatosidase or immunoreactive for the FLAG epitope.

The target of data set [3] is T1, Nogo receptor (NgR) (Homo sapiens, UniProt Q9BZR6).
T1 construct: both cDNAs contained the full-length coding region of the Nogo-66 receptor (NgR); expressed in transfected cells; host or cells: CHO cells stably expressing NgR (COS-7 for the library clones)
T1 sequence (Q9BZR6 27-473): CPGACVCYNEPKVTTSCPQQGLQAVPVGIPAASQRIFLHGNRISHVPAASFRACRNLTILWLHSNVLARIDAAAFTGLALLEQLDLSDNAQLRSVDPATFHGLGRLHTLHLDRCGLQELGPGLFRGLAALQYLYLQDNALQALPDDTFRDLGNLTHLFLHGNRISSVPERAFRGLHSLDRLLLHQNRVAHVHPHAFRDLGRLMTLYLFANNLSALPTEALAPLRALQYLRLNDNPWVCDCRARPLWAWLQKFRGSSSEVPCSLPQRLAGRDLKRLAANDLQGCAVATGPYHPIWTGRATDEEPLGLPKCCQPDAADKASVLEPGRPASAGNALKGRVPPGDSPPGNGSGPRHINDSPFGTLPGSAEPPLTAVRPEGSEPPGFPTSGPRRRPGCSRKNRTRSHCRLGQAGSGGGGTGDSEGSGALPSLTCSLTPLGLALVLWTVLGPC
As to conditions: read-out: binding affinity of NgR for Nogo-66; cited from earlier work.

Data set [4] deals with T1, Nogo receptor (NgR). Description: Cell surface binding of AP fusion proteins to NgR-expressing cells (saturation analysis). Particulars: CHO cell line stably expressing NgR; read-out: binding affinity of expressed NgR for AP-OM. As for the experimental part: To investigate the mechanisms by which OMgp inhibits neurite outgrowth, we used an expression cloning strategy^9,13,16 to identify cell surface OMgp-binding proteins. […] From pools of an adult human brain cDNA expression library, we isolated two cDNAs that encoded OMgp-binding proteins. […] We then established a CHO cell line stably expressing the NgR and determined the binding affinity of expressed NgR for AP-OM as 5 nM, similar to what had been determined for Nogo-66 (7 nM, ref. 9). […] We next performed co-precipitation experiments by incubating GST or a GST fusion protein containing the entire extracellular domain of NgR (GST-NgR) with OM-his alone or in the presence of AP or AP-66 protein. […] We next determined which domain(s) of OMgp was responsible for binding to NgR. Like NgR, OMgp is also a GPI-linked protein containing a leucine-rich repeat (LRR) domain. […]
Cell surface binding and expression cloning were performed as described previously^4,13,17. […] After extensive washing and heat inactivation, the bound proteins were detected by AP staining using nitro blue tetrazolium (NBT) and 5-bromo-4-chloro-3-indoyl phosphate (BCIP) as substrate. For saturation analysis, we disrupted cells and detected bound AP fusion proteins using r-nitrophenyl phosphate as substrate. […]

Like-named read-outs stand apart in the source and are kept apart here.

B1: Nogo-66: 66 amino acid extracellular domain of Nogo-A (protein)
chain: RIYKGVIQAIQKSDEGHPFRAYLESEVAISEELVQKYSNSALGHVNCTIKELRRLFLVDDLVDSLK
modifications: left off: large carriers
notes: 66 amino acid extracellular domain of Nogo-A
For B1, the “growth cone collapse response in NgR-expressing neurons” value in data set [1] is reported as “conferred a growth cone collapse response”. Also, in data set [2] (PI-PLC pre-incubation), the “growth cone collapsing activity after PI-PLC treatment of the neurons” value is reported as “insensitive”. Further, the Kd in the data set with Nogo receptor (NgR) [3] was 7 nM.

B2: AP-OM: alkaline phosphatase fusion protein containing mouse OMgp, polyhistidine and myc tagged (protein)
chain: ICPLQCTCTERHRHVDCSGRNLTTLPPGLQENIIHLNLSYNHFTDLHNQLTPYTNLRTLDISNNRLESLPAQLPRSLWNMSAANNNIKLLDKSDTAYQWNLKYLDVSKNMLEKVVLIKNTLRSLEVLNLSSNKLWTVPTNMPSKLHIVDLSNNSLTQILPGTLINLTNLTHLYLHNNKFTFIPEQSFDQLLQLQEITLHNNRWSCDHKQNITYLLKWVMETKAHVIGTPCSKQVSSLKEQSMYPTPPGFTSSLFTMSEMQTVDTINSLSMVTQPKVTKTPKQYRGKETTFGVTLSKDTTFSSTDRAVVAYPEDTPTEMTNSHEAAAATLTIHLQDGMSSNASLTSATKSPPSPVTLSIARGMPNNFSEMPRQSTTLNLRREETTANGNTRPPS
modifications: left off: large carriers; small tags and cut ends
notes: alkaline phosphatase fusion protein containing mouse OMgp, polyhistidine and myc tagged
With B2, the “growth cone collapsing activity” value in data set [2] is “induce collapse”. In addition, the Kd with Nogo receptor (NgR) [4] came to 5 nM.
